Measurements published in IntAct's records for PubMed 22321644.

B1: Staphylokinase (Staphylococcus aureus (strain N315)), Q99SU7 (parent)
chain: MLKRSLLFLTVLLLLFSFSSITNEVSASSSFDKGKYKKGDDASYFEPTGPYLMVNVTGVDSKGNELLSPHYVEFPIKPGTTLTKEKIEYYVEWALDATAYKEFRVVELDPSAKIEVTYYDKNKKKEETKSFPITEKGFVVPDLSEHIKNPGFNLITKVVIEKK

Variants of: B1
Settings: with plmn_human PLG

Variant	effect of a mutation on the interaction
V72F	decreasing interaction
Y71F	decreasing interaction

Variants of: B1
Settings: with plmn_human PLG
Remark: another data set of the same source

Variant	effect of a mutation on the interaction
V72Y	decreasing interaction

Variants of: B1
Settings: with plmn_human PLG
Remark: another data set of the same source

Variant	effect of a mutation on the interaction
V72A	disrupting interaction

Variants of: B1
Settings: with plmn_human PLG
Remark: another data set of the same source

Variant	effect of a mutation on the interaction
V72A	decreasing interaction

Variants of: B1
Settings: with plmn_human PLG
Remark: another data set of the same source

Variant	effect of a mutation on the interaction
P69L	disrupting interaction

Variants of: B1
Settings: with plmn_human PLG
Remark: another data set of the same source

Variant	effect of a mutation on the interaction
P69L	decreasing interaction
